These are literature values, as cited in paper PMC7911750.

This data set concerns the target NKp30-Ig ECD (Homo sapiens) (UniProt O14931).

pKd: −log10 of the molar value.

UniProt O14931, sequence (O14931 19-135): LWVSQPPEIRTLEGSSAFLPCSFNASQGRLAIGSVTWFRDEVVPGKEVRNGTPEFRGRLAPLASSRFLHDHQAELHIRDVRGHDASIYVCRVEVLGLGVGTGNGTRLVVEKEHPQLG

With pp65 (from UniProt P06725), the negative logarithm of the Kd (pKd) (commonly −log10 of the Kd, conventionally taken in molar units) was 8.00.
